Source: patent publication US20250312444A1 (BEIJING TUO JIE BIOPHARMACEUTICAL, published 2025)

Columns and labels:
dog RXFP1 receptor = dog RXFP1 receptor (dog); assay: cell-based or functional assay
human RXFP1 receptor = molecular target: T1, human RXFP1 receptor (human, UniProt Q9HBX9 1-757); assay: cell-based or functional assay
T1 sequence (looked up): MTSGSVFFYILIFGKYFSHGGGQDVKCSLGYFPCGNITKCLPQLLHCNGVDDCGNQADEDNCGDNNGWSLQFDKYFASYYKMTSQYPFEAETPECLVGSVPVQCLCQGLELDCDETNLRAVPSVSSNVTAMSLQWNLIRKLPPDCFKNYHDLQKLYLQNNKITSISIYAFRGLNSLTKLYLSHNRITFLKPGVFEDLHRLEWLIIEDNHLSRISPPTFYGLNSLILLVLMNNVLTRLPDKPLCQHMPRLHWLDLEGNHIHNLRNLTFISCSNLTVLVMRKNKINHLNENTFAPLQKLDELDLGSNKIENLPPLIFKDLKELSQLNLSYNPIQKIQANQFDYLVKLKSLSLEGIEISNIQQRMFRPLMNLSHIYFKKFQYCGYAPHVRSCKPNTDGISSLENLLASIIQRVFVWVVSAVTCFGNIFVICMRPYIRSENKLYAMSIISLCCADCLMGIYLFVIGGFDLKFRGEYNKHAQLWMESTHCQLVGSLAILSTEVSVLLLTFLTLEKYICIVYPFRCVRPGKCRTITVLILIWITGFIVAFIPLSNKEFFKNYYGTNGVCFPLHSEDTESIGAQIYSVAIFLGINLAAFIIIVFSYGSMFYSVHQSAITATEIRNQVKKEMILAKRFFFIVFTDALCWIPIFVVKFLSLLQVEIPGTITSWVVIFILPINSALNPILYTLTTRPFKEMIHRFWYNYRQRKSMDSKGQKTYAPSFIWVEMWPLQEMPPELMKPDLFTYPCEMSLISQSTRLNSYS

B1: 0051 (other)
chain: EVQLLESGGGLVQPGGSLRLSCAASGFTFLTSCMGWFRQAPGKEREGVSSIYTVGGSTFYTNSVKGRFTISRDNSKNTLYLQMNSLRAEDTAVYYCAAGSPARCRLRDPTTFDYWGQGTLVTVSSGGGGQGGGGQGGGGQGGGGQGGGGQSWMEEVIKLCGRELVRAQIAICGMSTWSGGGSGGSGGGQLYSALANKCCHVGCTKRSLARFC
notes: Single-chain fusion: anti-HSA VHH, linker, relaxin-2 B chain, linker, relaxin-2 A chain; also called fusion protein 0051; molecule 0051
Dog RXFP1 receptor
  EC50 (nM), cAMP production in CHO-K1 cells with receptor overexpression: 2210 nM
Human RXFP1 receptor
  EC50 (nM), cAMP production in CHO-K1 cells with receptor overexpression: 28.3 nM
